First the molecules themselves.
B1: AB1 having a murinised VL of SEQ ID NO: 9 and a murinised VH of SEQ ID NO.: 10 (antibody, V domains shown)
VH: QVQLKESGPGLVAPSQSLSITCTVSGIDLSTWRMNWVRQPPGKGLEWIGIIGTGGRTYYANWAKGRFSISKDSTQVFLKMNSLQTEDTATYFCARLGANNNGYPLDLWGAGTTVTVSS
VL: DVVMTQSPASLAVSLGQRATISCQASQSVSSYLAWYQQKPGQPPKLLIYAASYLASGVPSRFKGSGSGTEFTLNIHPVEEEDAATYYCQQGYTRTDIDNTFGGGTKLEIK
B2: mFab from murinised mAB1 antibody with light chain of SEQ ID No.: 58 and heavy chain of SEQ ID No.: 59 (Fab, V domains shown)
VH: B1 VH
VL: DVVMTQSPASLAVSLGQRATISCQASQSVSSYLAWYQQKPGQPPKLLIYAASYLASGVPSRFKGSGSGTEFTLNIHPVEEEDAATYYCQQGYTRTDIDNTFGGGTKLEIKR
notes: Fab made by ficin cleavage of the whole antibody; also called mFab from mAB1
B3: Tau-binding antibody having the light chain of SEQ ID No.: 17 and the heavy chain of SEQ ID No.:23 (antibody, human IgG1, kappa)
light: DIQMTQSPSSLSASVGDRVTITCQASQSVSSYLAWYQQKPGKAPKLLIYAASYLASGVPSRFSGSGSGTDFTLTISSLQPEDFATYYCQQGYTRTDIDNTFGGGTKVEIKRTVAAPSVFIFPPSDEQLKSGTASVVCLLNNFYPREAKVQWKVDNALQSGNSQESVTEQDSKDSTYSLSSTLTLSKADYEKHKVYACEVTHQGLSSPVTKSFNRGEC
heavy: not shown
B4: Tau-binding humanised antibody having the light chain of SEQ ID NO: 17 and the heavy chain of SEQ ID NO: 20 (antibody, human IgG4 S228P, kappa)
light: B3 light
heavy: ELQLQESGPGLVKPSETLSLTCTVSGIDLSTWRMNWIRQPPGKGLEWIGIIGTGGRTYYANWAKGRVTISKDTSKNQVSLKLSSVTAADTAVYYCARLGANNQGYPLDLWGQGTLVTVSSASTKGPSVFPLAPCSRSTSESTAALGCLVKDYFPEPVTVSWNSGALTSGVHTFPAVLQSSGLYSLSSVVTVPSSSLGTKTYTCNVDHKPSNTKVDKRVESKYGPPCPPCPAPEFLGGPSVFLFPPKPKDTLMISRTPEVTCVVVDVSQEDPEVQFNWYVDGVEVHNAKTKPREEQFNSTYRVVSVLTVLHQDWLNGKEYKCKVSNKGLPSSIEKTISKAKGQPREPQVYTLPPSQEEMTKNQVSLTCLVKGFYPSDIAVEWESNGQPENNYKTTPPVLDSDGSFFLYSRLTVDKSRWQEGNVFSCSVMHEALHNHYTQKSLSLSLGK
B5: Tau-binding antibody having the light chain of SEQ ID No.: 17 and the heavy chain of SEQ ID No.:21 (antibody, human IgG4 S228P, kappa)
light: B3 light
heavy: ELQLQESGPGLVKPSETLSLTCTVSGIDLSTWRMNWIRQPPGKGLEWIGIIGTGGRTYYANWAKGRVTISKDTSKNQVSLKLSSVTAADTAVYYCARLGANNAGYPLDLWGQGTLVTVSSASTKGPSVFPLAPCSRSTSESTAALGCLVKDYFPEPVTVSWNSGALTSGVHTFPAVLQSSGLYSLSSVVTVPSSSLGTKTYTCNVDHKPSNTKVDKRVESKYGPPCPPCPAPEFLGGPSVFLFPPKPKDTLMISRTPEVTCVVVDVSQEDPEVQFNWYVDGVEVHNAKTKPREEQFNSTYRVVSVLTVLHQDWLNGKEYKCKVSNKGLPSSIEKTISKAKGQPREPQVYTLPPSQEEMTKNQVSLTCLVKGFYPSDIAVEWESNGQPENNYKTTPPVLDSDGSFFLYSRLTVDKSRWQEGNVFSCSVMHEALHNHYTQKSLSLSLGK
B6: Tau-binding antibody having the light chain of SEQ ID No.: 17 and the heavy chain of SEQ ID No.:24 (antibody, human IgG1, kappa)
light: B3 light
heavy: not shown

The target in test [1] is T1, Tau seeds: brain fraction from transgenic mice expressing human Tau P301L (human, UniProt P10636-8 1-441, limits assumed). In words: cell-based or functional assay.
Test [2] deals with T2, Tau seeds: sonicated human insoluble Tau from patients with Alzheimer's disease (AD-PHF, fraction 8) (human, UniProt P10636-8 2-441, limits assumed). In words: cell-based or functional assay.
Test [3] concerns the target T3, Tau seeds: sonicated human insoluble Tau from patients with progressive supranuclear palsy (PSP-PHF, fraction … (human, UniProt P10636-8 2-441, limits assumed)). Kind of test: cell-based or functional assay.
The target of test [4] is T1, Tau seeds: brain fraction from …. In words: cell-based or functional assay. This is another data set of the same source.
Test [5] addresses T2, Tau seeds: sonicated human insoluble …. Kind of test: cell-based or functional assay. The source holds these as a separate data set.
The target of test [6] is T3, Tau seeds: sonicated human insoluble …. In words: cell-based or functional assay. This is another data set of the same source.
Test [7] concerns the target Tau seeds: sonicated human insoluble Tau from patients with frontotemporal dementia (FTD-PHF) (human, UniProt P10636-8 2-441, limits assumed). In words: cell-based or functional assay.
Test [8] concerns the target T4, HEK-derived Tau isoform-2 monomers (amino acids 1-441) (human, UniProt P10636 1-758).
T4 construct: Expressed in Expi293F cells, N-terminal 10His-TEV tag removed with TEV protease; phosphorylation state not described; also called HEK iso-2; HEK Tau
Kind of test: SPR (Biacore T200), Tau amine-immobilised on CM5, mFab as analyte. On the procedure:
Selected monoclonal Fab fragments (mFab) were prepared from murinised mAB 1 antibody with light chain of SEQ ID No.: 58 and heavy chain of SEQ ID No.: 59 using the Pierce Ficin cleavage kit (Cat. No. 44980, Thermo Scientific) according to the protocol of the manufacturer. Absorption at 280 nm was used to determine the concentration of the Fab stock solutions for the Biacore analysis. An insoluble Tau protein preparation from Alzheimer's disease patients (AD-PHF, fraction 11), the HEK-derived Tau isoform-2 monomers (amino acids 1-441), and the isoform-2 monomers expressed in E. coli were amine immobilized onto the CM5 chip, and binding of anti-Tau mFabs was measured with the Biacore T200 instrument. The buffer HBS-EP from GE Healthcare was used for immobilizations apart from the AD-PHF for which 10 mM acetic acid (pH3.0) was used. The HBS-EP+ buffer was supplemented with 300 mM NaCl and 1.25% CM-Dextran (Sigma) and used as the assay buffer. While flow cell (Fc) 1 was used as a reference, the following RU values were obtained for Fc2-4: 44 RU with 5 ug/ml E. coli Tau, 56 RU with 5 ug/m HEK Tau, and 500 RU with a 1:20 diluted solution of the AD-PHF material. Two 60 s cycles of 10 mM Glycine (pH1.7) were used for regeneration. Flow rates of 10 ul/min were used for immobilization and regeneration while a 30 ul/min flow rate was used for analyte binding. […]

Test [9] addresses T5, insoluble Tau protein preparation from Alzheimer's disease patients (AD-PHF), immobilised for Biacore (human, UniProt P10636-8 2-441, limits assumed).
T5 construct: also called AD-PHF, fraction 11; Tau PHF fibrils from Alzheimer's disease patients
Kind of test: SPR (Biacore T200), AD-PHF (fraction 11) amine-immobilised on CM5, mFab as analyte. On the procedure:
Selected monoclonal Fab fragments (mFab) were prepared from murinised mAB 1 antibody with light chain of SEQ ID No.: 58 and heavy chain of SEQ ID No.: 59 using the Pierce Ficin cleavage kit (Cat. No. 44980, Thermo Scientific) according to the protocol of the manufacturer. Absorption at 280 nm was used to determine the concentration of the Fab stock solutions for the Biacore analysis. An insoluble Tau protein preparation from Alzheimer's disease patients (AD-PHF, fraction 11), the HEK-derived Tau isoform-2 monomers (amino acids 1-441), and the isoform-2 monomers expressed in E. coli were amine immobilized onto the CM5 chip, and binding of anti-Tau mFabs was measured with the Biacore T200 instrument. The buffer HBS-EP from GE Healthcare was used for immobilizations apart from the AD-PHF for which 10 mM acetic acid (pH3.0) was used. The HBS-EP+ buffer was supplemented with 300 mM NaCl and 1.25% CM-Dextran (Sigma) and used as the assay buffer. While flow cell (Fc) 1 was used as a reference, the following RU values were obtained for Fc2-4: 44 RU with 5 ug/ml E. coli Tau, 56 RU with 5 ug/m HEK Tau, and 500 RU with a 1:20 diluted solution of the AD-PHF material. Two 60 s cycles of 10 mM Glycine (pH1.7) were used for regeneration. Flow rates of 10 ul/min were used for immobilization and regeneration while a 30 ul/min flow rate was used for analyte binding. For AD-PHF, multiple manual injections were applied to reach 500 RU, including EDC/NHS and EtoA capping. Five start-up cycles and 12 cycles per mFab sample or buffer control were applied, using 90 uls analyte injections for either 180 s or 300 s for dissociation. 11 1:3 dilutions of a 600 nM solution plus buffer were used for each mFab.
A general note: In SPR one partner is held on a chip, and binding of the other changes the refractive index at the surface.

The target in test [10] is B4. Kind of test: SPR competition: no significant inhibition of L17H20 binding to immobilised HEK Tau isoform-2. The text has this: Recombinant Tau isoform-2 monomer (amino acids 1-441), expressed and purified from HEK cells, and insoluble Tau protein in the form of a paired helical filament preparation isolated from Alzheimer's disease patient brain (AD-PHF), were amine immobilized onto the CM5 chip using a Biacore 3000 instrument and HBS-EP (GE Healthcare) as running buffer. The former were amine coupled to flow cells 2 and 4 respectively following activation of the carboxymethyl dextran surface these and reference flow cells by injection of 70 μl of a fresh mixture of 50 mM N-hydroxysuccimide and 200 mM 1-ethyl-3-(3-dimethylaminopropyl)-carbodiimide at a flow rate of 10 μl/min. Immobilization of tau monomer was achieved by injecting 160 μl at 50 μg/ml in 10 mM acetate pH 5.0 buffer, whereas AD-PHF was immobilized by injecting twenty 160 μl aliquots at 2 μg/ml in 10 mM acetic acid (pH3.0). […]
Epitope mapping was carried out by pre-incubating solutions of a Tau-binding humanised antibody having the light chain of SEQ ID NO: 17 and the heavy chain of SEQ ID NO: 20 (L17H20) and test peptide or buffer controls, prepared in running buffer at 200 nM and 5000 nM respectively. […] Response units of antibody binding were recorded at report points taken 15 sec after the end of each injection as the difference between values of test and reference flow cells. […]

Square brackets hold non-standard residues; d marks the D form. Ends that are not written are not given here. Tyr(3-NO2) = N[C@@H](Cc1ccc(O)c([N+](=O)[O-])c1)C(=O)O; pS = N[C@@H](COP(=O)(O)O)C(=O)O

T3 sequence (P10636 other isoform, or with tags, fused parts or gaps limits assumed): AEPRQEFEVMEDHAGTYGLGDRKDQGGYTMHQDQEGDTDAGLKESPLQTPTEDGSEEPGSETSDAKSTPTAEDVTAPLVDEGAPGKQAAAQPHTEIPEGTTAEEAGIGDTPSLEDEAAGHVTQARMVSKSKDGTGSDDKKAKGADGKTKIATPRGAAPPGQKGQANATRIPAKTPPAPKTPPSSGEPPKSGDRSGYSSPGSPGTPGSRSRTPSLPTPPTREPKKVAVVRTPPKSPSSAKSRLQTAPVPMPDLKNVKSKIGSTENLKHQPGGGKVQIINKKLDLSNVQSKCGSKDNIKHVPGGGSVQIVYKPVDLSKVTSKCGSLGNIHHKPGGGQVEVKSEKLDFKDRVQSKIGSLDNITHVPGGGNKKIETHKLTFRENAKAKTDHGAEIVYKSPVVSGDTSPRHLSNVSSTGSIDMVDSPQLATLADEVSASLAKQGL
T2 sequence (P10636 other isoform, or with tags, fused parts or gaps limits assumed): as above
T5 sequence (P10636 other isoform, or with tags, fused parts or gaps limits assumed): as above
Sequence of Tau seeds: sonicated human insoluble Tau from patients with frontotemporal dementia (FTD-PHF) (P10636 other isoform, or with tags, fused parts or gaps limits assumed): as above
T1 sequence (P10636 other isoform, or with tags, fused parts or gaps P301L P301L limits assumed): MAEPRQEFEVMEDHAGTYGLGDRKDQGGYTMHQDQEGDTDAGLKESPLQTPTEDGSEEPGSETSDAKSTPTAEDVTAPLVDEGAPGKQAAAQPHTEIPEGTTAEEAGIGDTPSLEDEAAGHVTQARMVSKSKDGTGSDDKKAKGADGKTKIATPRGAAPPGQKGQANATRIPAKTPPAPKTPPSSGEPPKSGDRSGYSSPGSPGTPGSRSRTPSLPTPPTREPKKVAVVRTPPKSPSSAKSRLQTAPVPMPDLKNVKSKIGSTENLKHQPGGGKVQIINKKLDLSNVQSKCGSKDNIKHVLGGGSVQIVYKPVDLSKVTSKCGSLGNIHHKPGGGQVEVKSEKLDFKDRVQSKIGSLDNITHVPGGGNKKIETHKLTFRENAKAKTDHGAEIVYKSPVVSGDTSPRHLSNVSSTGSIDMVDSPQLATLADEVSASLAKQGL
T4 sequence (P10636 other isoform, or with tags, fused parts or gaps): as the sequence (P10636 other isoform, or with tags, fused parts or gaps P301L P301L limits assumed) above, with L301P counted along it

As for B1, in [1], the “IC50, cellular Tau aggregation assay (n=2)” value amounted to 15 nM. Besides, the “IC50, cellular Tau aggregation assay (n=3)” value in test [2] stood at 27 nM; in test [3], 70 nM. Further, the entries for the “IC50, cellular Tau aggregation assay” value in test [4], in test [5] and in [7] were 9 nM, 10 nM and 1 nM, respectively. Further, the “Imax (maximal efficacy at 300 nM), cellular Tau aggregation assay” value (“Imax (maximal efficacy at 300 nM)” for short) in [4] came to 81%; in [5], 79%; in test [6] it was 54%; in test [7], 81%.
A word on the Kd: it is the concentration at which binding is half-saturated. The low end stands for a tighter complex, the high end for a looser complex. Usually koff stands for the first-order rate constant of dissociation. Broadly, the kon is a measure of how fast the partners come together. With B2, the binding result in test [8] was “no binding (tested: 600 nM)”. Further, in test [9], the Kd is 590 nM, the koff is 0.047 s⁻¹ and the kon amounted to 79600 M⁻¹ s⁻¹.
[Tyr(3-NO2)][pS][pS]PG [T197H test peptide (nY pS pS P G)]: in test [10], the binding result was “no binding (tested: 5000 nM peptide)”.
On to B3, for which the “Imax (maximal efficacy at 300 nM)” value in test [6] was determined as 49%.
With B4, the figures for the “IC50, cellular Tau aggregation assay” value in [5], in test [6] and in test [7] were 2 nM, 42 nM and 1 nM, respectively. The “Imax (maximal efficacy at 300 nM)” value was found to be 85% in [5], 65% in [6] and 79% in test [7].
On to B5, for which, in test [6], the “IC50, cellular Tau aggregation assay” value worked out at 66 nM and the “Imax (maximal efficacy at 300 nM)” value worked out at 47%.
Regarding B6, in test [6], the “Imax (maximal efficacy at 300 nM)” value is 47%.

For the origin of these results see patent US20210139574A1 (UCB, published 2021).
